Results as given in patent publication US20210332145A1 (SINGLE CELL TECHNOLOGY, published 2021).
Positions count from the first letter of the chain named.

Tests used:
[1] = target: T1, human BCMA with a His tag (ACROBiosystems, Catalog No.: BCA-H522y) (human); test: SPR, Biacore T200
T1 construct: Bought His-tagged recombinant protein; also called huBCMA-His; Recombinant human BCMA
T1 chain: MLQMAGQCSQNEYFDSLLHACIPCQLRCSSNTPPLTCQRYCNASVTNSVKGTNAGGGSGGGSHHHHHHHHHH
Protocol: The binding affinity of select anti-BCMA was measured on a surface plasmon resonance (SPR) instrument, Biacore T200™, against human BCMA by a method known in the art.
In experiments performed essentially as described above, a subset of anti-human BCMA antibodies of the present disclosure bind human BCMA with a His tag (ACROBiosystems, Beijing, China, Catalog No.: BCA-H522y, SEQ ID NO:2) with affinity shown in Table 6.

[2] = target: T2, BCMA on cells (293T cells transfected with BCMA; H929, MM.1S and U266 cell lines expressing BCMA) (human, UniProt Q02223 1-184); test: flow cytometry, H929 cells
T2 construct: H929, MM.1S and U266 carry the native protein; also called B-cell Maturation Antigen; TNFRSF17
T2 sequence: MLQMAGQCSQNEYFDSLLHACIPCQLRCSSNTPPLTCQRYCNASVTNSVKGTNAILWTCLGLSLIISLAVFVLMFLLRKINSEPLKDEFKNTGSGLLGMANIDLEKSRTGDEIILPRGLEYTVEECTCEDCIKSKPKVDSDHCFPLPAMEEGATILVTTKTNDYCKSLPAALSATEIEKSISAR

[3] = target: T2, BCMA on cells (293T cells transfected …); test: flow cytometry, 293T cells transfected with BCMA, above parental 293T background
[4] = target: T2, BCMA on cells (293T cells transfected …); test: flow cytometry, H929 cells; remark: listed apart in the source
Protocol: A cell line expressing BCMA, H929, was used to assess binding by anti-BCMA antibodies on the native protein on the cell surface by flow cytometry according to the known art. A subset of anti-human BCMA antibodies were assayed for binding to H929 and the fraction of cells bound the labeled antibody above background defined by control is shown in Table 8.

[5] = target: T3, mouse BCMA with a His tag (ACROBiosystems, Catalog No.: BCA-M52H3) (mouse); test: ELISA, plate-coated mouse BCMA-His
T3 construct: Bought His-tagged recombinant protein
T3 chain: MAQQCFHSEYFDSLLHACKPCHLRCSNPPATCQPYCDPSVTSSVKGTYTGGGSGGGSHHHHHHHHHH
Protocol: (§1) The recombinantly expressed antibodies were used to assess binding activity to BCMA of different species origins by conventional ELISA according to the known art. Recombinant human BCMA, cyno BCMA, and mouse BCMA were coated onto ELISA plates to detect binding at serially diluted concentrations of the anti-BCMA antibody preparations.
(§2) The ability for antibodies of the present disclosure to bind human BCMA was measured with an ELISA assay. For the BCMA binding assay, a 96-well plate (Nunc) is coated with human BCMA with a His tag (ACROBiosystems, Catalog No.: AC108P1-180611F2-Bulk, SEQ ID NO:2) at 0.2 μg/well overnight at 4° C. Wells are blocked for 2 h with blocking buffer (PBS containing 3% bovine serum albumin). Wells are washed three times with PBS containing 0.1% Tween-20. Anti-human BCMA antibodies of the present disclosure or control IgG (100 μL) is then added and incubated at room temperature for 1 h. After washing, the plate is incubated with 100 μL of goat anti-mouse IgG Fcγ Fragment Specific-HRP conjugate (Jackson ImmunoResearch) at room temperature for 1 h. The plates are washed and then incubated with 100 μL of 3,3′,5,5′-tetra-methylbenzidine. The absorbance at 450 nm is read on a microplate reader. The half maximal effective concentration (EC50) is calculated using GraphPad Prism 6 software.
In experiments performed essentially as described above, anti-human BCMA antibodies of the present disclosure bind mouse BCMA with a His tag (ACROBiosystems, Beijing, China, Catalog No.: BCA-M52H3, SEQ ID NO:109) with an EC50 values shown in Table 5.

[6] = target: T1, human BCMA with a His tag …; test: ELISA, plate-coated human BCMA-His
Protocol: as §1, §2
In experiments performed essentially as described above, anti-human BCMA antibodies of the present disclosure bind human BCMA with a His tag (ACROBiosystems, Beijing, China, Catalog No.: BCA-H522y, SEQ ID NO:2) with an EC50 values shown in Table 3.

B1: SCT-Aa08(h/h) (antibody, V domains shown)
VH: QVQLQQSDAELVKPGASVKISCKVSGYTFIDHTIHWMKQRPEQGLEWIGYIYPRIDSSKCNEKFKDKATLTADKSSNTAYIQLNSLTSEDSAVYFCARWDYEGFDYWGQGTTLTVSS
VL: DIVMTQSPATLSVTPGDRVSLSCRASQSISDYLHWYQQKSHESPRLLIKYASQSISGIPSRFSGSGSGSDFTLSINSVEPEDVGVYYCQNGHSFPPTFGSGTKLEIK
notes: Full IgG format, chimeric: human IgG1 heavy chain constant region, human kappa light chain constant region
Kd [1]: 17.6 nM | koff [1]: 0.0592 s⁻¹ | kon [1]: 3.36e+06 M⁻¹ s⁻¹ | Mean fluorescent intensity [2]: 454 | Positive (%) [3]: 57.5% | Positive (%) [4]: 92.5% | EC50 [5]: 0.377 µg/mL | EC50 [6]: 3.74 ng/mL

B2: SCT-Aa08(m/m) (antibody, V domains shown)
VH: B1 VH
VL: B1 VL
notes: Full IgG format: mouse IgG1 heavy chain constant region, mouse kappa light chain constant region
Kd [1]: 15.7 nM | koff [1]: 0.0527 s⁻¹ | kon [1]: 3.36e+06 M⁻¹ s⁻¹ | Mean fluorescent intensity [2]: 1820 | Positive (%) [3]: 70.6% | Positive (%) [4]: 99.9% | EC50 [5]: 0.682 µg/mL | EC50 [6]: 2.46 ng/mL

B3: SCT-Aa11(h/h) (antibody, V domains shown)
VH: QVQLQQSDAELVKPGASVKISCKVSGYTFTDHTIHWMKQRPEQGLEWIGYIFPRDGTTKFNEMFKGKATLTADKSSSTAYMELNSLTSEDSAVYFCARWDYEGFDYWGQGTTLTVSS
VL: B1 VL with S54F, S63R
notes: as for B1
Kd [1]: 47.1 nM | koff [1]: 0.113 s⁻¹ | kon [1]: 2.4e+06 M⁻¹ s⁻¹ | Mean fluorescent intensity [2]: 179 | Positive (%) [3]: 34.9% | Positive (%) [4]: 53.7% | EC50 [6]: 3.85 ng/mL

B4: SCT-Aa11(m/m) (antibody, V domains shown)
VH: B3 VH
VL: B1 VL with S54F, S63R
notes: as for B2
Kd [1]: 42 nM | koff [1]: 0.0945 s⁻¹ | kon [1]: 2.25e+06 M⁻¹ s⁻¹ | Mean fluorescent intensity [2]: 1520 | Positive (%) [3]: 34.6% | Positive (%) [4]: 99.9% | EC50 [6]: 2.38 ng/mL

B5: SCT-Aa06(m/m) (antibody, V domains shown)
VH: EVQLQQSGPELVKPGNSVKISCKASGYSFTGYFMNWVMQSHGKSLEWIGRINPYNGDTFYNQKFKGKATLTVDKSSSTAHMELRSLTSEDSAVYYCARLDYTNYNSYPMDYWGQGTSVTVSS
VL: DIQMTHTTSSLSASLGDRVTISCSASQGISNYLNWYLQKPDGTVKLLIYYTSNLHSGVPSRFSGSGSGTDFSLTISNLQPEDIATYYCQQYSKFPWTFGGGTKLEIK
notes: as for B2
Kd [1]: 5.16 nM | koff [1]: 0.0163 s⁻¹ | kon [1]: 3.15e+06 M⁻¹ s⁻¹ | Mean fluorescent intensity [2]: 4300 | Positive (%) [3]: 91.6% | Positive (%) [4]: 99.9% | EC50 [6]: 2.34 ng/mL

B6: SCT-Aa01(h/h) (antibody, V domains shown)
VH: DVQLQESGPGLVKPSQSLSLTCSVTGYSITSGYYWNWIRQFPGNKLEWMGYIRYDGSNNYNPSLKNRISITRDTSKNQFFLKLNSVTTEDTATYYCAPYDYDYAMDFWGQGTSVTVSS
VL: DIQMTQSPASLSASVGETVTITCRASGNIHNYLAWYQQKQGKSPQLLVYNAKTLAHGVPSRFSGSGSGTQYSLKITSLQPEDFGTYYCQHFWSTPFTFGSGTKLEIK
notes: as for B1
Kd [1]: 43.4 nM | koff [1]: 0.0355 s⁻¹ | kon [1]: 819000 M⁻¹ s⁻¹ | Mean fluorescent intensity [2]: 411 | Positive (%) [3]: 12.3% | Positive (%) [4]: 55.2% | EC50 [6]: 3.38 ng/mL

B7: SCT-Aa19(h/h) (antibody, V domains shown)
VH: QVQLQQSGPELVKPGASVRISCKASGCTFTDYYIHWVKQRPGQGLEWIGWIYPGNLNSKFNEKFRDKATLTADNSSSTAYMQLSSLTSEDSAVYFCARYNYEGYFDYWGQGTTLTVSS
VL: B1 VL with S30A, Y32S, Q53H, S63R, P96L, S100A, I106L
notes: as for B1
Kd [1]: 1.19 nM | koff [1]: 0.0062 s⁻¹ | kon [1]: 5.21e+06 M⁻¹ s⁻¹ | Mean fluorescent intensity [2]: 351 | Positive (%) [3]: 51% | Positive (%) [4]: 85.1% | EC50 [6]: 3.38 ng/mL
